T1: Activin A (UniProt P08476 311-426)
T1 construct: also called ActA
T1 sequence (looked up): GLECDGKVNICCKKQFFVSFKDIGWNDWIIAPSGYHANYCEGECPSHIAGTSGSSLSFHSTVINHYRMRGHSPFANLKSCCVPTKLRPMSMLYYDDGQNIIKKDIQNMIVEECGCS

T2: GDF-11 (UniProt O95390 299-407)
T2 construct: also called Growth and Differentiation Factor-11; BMP11
T2 sequence (looked up): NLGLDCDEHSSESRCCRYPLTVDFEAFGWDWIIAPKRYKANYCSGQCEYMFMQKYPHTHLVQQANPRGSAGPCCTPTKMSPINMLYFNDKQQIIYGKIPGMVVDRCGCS


What was measured:
Activin A = biological target: T1, Activin A; test: BiaCore, ligand immobilized on CM5 chip
Procedure: (§1) GDF-11 or Activin A (“ActA”) were immobilized on a BiaCore CM5 chip using standard amine coupling procedure. The ActRIIB-Fc mutant or wild-type protein was loaded onto the system, and binding was measured.

GDF-11 [1] = biological target: T2, GDF-11; test: BiaCore, ligand immobilized on CM5 chip
Procedure: as §1

GDF-11 [2] = biological target: T2, GDF-11; test: BiaCore (SPR); ligand amine-coupled to CM5 chip, ActRIIB-Fc injected
Procedure: as §1

Binder | binding result (Activin A) | binding result (GDF-11 [1]) | binding result (GDF-11 [2]) | Kd (GDF-11 [2]) [nM]
ActRIIB-Fc D80A (Fc fusion, Mutation in the background ActRIIB-Fc) SGRGEAETRECIYYNANWELERTNQSGLERCEGEQDKRLHCYASWANSSGTIELVKKGCWLADFNCYDRQECVATEENPQVYFCCCEGNFCNERFTHLPEAGGGTHTCPPCPAPELLGGPSVFLFPPKPKDTLMISRTPEVTCVVVDVSHEDPEVKFNWYVDGVEVHNAKTKPREEQYNSTYRVVSVLTVLHQDWLNGKEYKCKVSNKALPVPIEKTISKAKGQPREPQVYTLPPSREEMTKNQVSLTCLVKGFYPSDIAVEWESNGQPENNYKTTPPVLDSDGSFFLYSKLTVDKSRWQQGNVFSCSVMHEALHNHYTQKSLSLSPGK | no binding | no binding | – | –
ActRIIB-Fc F82A (Fc fusion, Mutation in the background ActRIIB-Fc) SGRGEAETRECIYYNANWELERTNQSGLERCEGEQDKRLHCYASWANSSGTIELVKKGCWLDDANCYDRQECVATEENPQVYFCCCEGNFCNERFTHLPEAGGGTHTCPPCPAPELLGGPSVFLFPPKPKDTLMISRTPEVTCVVVDVSHEDPEVKFNWYVDGVEVHNAKTKPREEQYNSTYRVVSVLTVLHQDWLNGKEYKCKVSNKALPVPIEKTISKAKGQPREPQVYTLPPSREEMTKNQVSLTCLVKGFYPSDIAVEWESNGQPENNYKTTPPVLDSDGSFFLYSKLTVDKSRWQQGNVFSCSVMHEALHNHYTQKSLSLSPGK | – | – | binds | –
ActRIIB-Fc D80F (Fc fusion, Mutation in the background ActRIIB-Fc) SGRGEAETRECIYYNANWELERTNQSGLERCEGEQDKRLHCYASWANSSGTIELVKKGCWLFDFNCYDRQECVATEENPQVYFCCCEGNFCNERFTHLPEAGGGTHTCPPCPAPELLGGPSVFLFPPKPKDTLMISRTPEVTCVVVDVSHEDPEVKFNWYVDGVEVHNAKTKPREEQYNSTYRVVSVLTVLHQDWLNGKEYKCKVSNKALPVPIEKTISKAKGQPREPQVYTLPPSREEMTKNQVSLTCLVKGFYPSDIAVEWESNGQPENNYKTTPPVLDSDGSFFLYSKLTVDKSRWQQGNVFSCSVMHEALHNHYTQKSLSLSPGK | no binding | no binding | – | –
ActRIIB-Fc D80R (Fc fusion, Mutation in the background ActRIIB-Fc) SGRGEAETRECIYYNANWELERTNQSGLERCEGEQDKRLHCYASWANSSGTIELVKKGCWLRDFNCYDRQECVATEENPQVYFCCCEGNFCNERFTHLPEAGGGTHTCPPCPAPELLGGPSVFLFPPKPKDTLMISRTPEVTCVVVDVSHEDPEVKFNWYVDGVEVHNAKTKPREEQYNSTYRVVSVLTVLHQDWLNGKEYKCKVSNKALPVPIEKTISKAKGQPREPQVYTLPPSREEMTKNQVSLTCLVKGFYPSDIAVEWESNGQPENNYKTTPPVLDSDGSFFLYSKLTVDKSRWQQGNVFSCSVMHEALHNHYTQKSLSLSPGK | no binding | no binding | – | –
ActRIIB-Fc D80N (Fc fusion, Mutation in the background ActRIIB-Fc) SGRGEAETRECIYYNANWELERTNQSGLERCEGEQDKRLHCYASWANSSGTIELVKKGCWLNDFNCYDRQECVATEENPQVYFCCCEGNFCNERFTHLPEAGGGTHTCPPCPAPELLGGPSVFLFPPKPKDTLMISRTPEVTCVVVDVSHEDPEVKFNWYVDGVEVHNAKTKPREEQYNSTYRVVSVLTVLHQDWLNGKEYKCKVSNKALPVPIEKTISKAKGQPREPQVYTLPPSREEMTKNQVSLTCLVKGFYPSDIAVEWESNGQPENNYKTTPPVLDSDGSFFLYSKLTVDKSRWQQGNVFSCSVMHEALHNHYTQKSLSLSPGK | no binding | no binding | – | –
ActRIIB-Fc WT (64R) (Fc fusion, also called A64R) SGRGEAETRECIYYNANWELERTNQSGLERCEGEQDKRLHCYASWRNSSGTIELVKKGCWLDDFNCYDRQECVATEENPQVYFCCCEGNFCNERFTHLPEAGGGTHTCPPCPAPELLGGPSVFLFPPKPKDTLMISRTPEVTCVVVDVSHEDPEVKFNWYVDGVEVHNAKTKPREEQYNSTYRVVSVLTVLHQDWLNGKEYKCKVSNKALPVPIEKTISKAKGQPREPQVYTLPPSREEMTKNQVSLTCLVKGFYPSDIAVEWESNGQPENNYKTTPPVLDSDGSFFLYSKLTVDKSRWQQGNVFSCSVMHEALHNHYTQKSLSLSPGK | – | – | – | 86
ActRIIB-Fc E37A (Fc fusion, Mutation in the background ActRIIB-Fc) SGRGEAETRECIYYNANWALERTNQSGLERCEGEQDKRLHCYASWANSSGTIELVKKGCWLDDFNCYDRQECVATEENPQVYFCCCEGNFCNERFTHLPEAGGGTHTCPPCPAPELLGGPSVFLFPPKPKDTLMISRTPEVTCVVVDVSHEDPEVKFNWYVDGVEVHNAKTKPREEQYNSTYRVVSVLTVLHQDWLNGKEYKCKVSNKALPVPIEKTISKAKGQPREPQVYTLPPSREEMTKNQVSLTCLVKGFYPSDIAVEWESNGQPENNYKTTPPVLDSDGSFFLYSKLTVDKSRWQQGNVFSCSVMHEALHNHYTQKSLSLSPGK | no binding | no binding | – | –
ActRIIB-Fc D80K (Fc fusion, Mutation in the background ActRIIB-Fc) SGRGEAETRECIYYNANWELERTNQSGLERCEGEQDKRLHCYASWANSSGTIELVKKGCWLKDFNCYDRQECVATEENPQVYFCCCEGNFCNERFTHLPEAGGGTHTCPPCPAPELLGGPSVFLFPPKPKDTLMISRTPEVTCVVVDVSHEDPEVKFNWYVDGVEVHNAKTKPREEQYNSTYRVVSVLTVLHQDWLNGKEYKCKVSNKALPVPIEKTISKAKGQPREPQVYTLPPSREEMTKNQVSLTCLVKGFYPSDIAVEWESNGQPENNYKTTPPVLDSDGSFFLYSKLTVDKSRWQQGNVFSCSVMHEALHNHYTQKSLSLSPGK | no binding | no binding | – | –
ActRIIB-Fc D80I (Fc fusion, Mutation in the background ActRIIB-Fc) SGRGEAETRECIYYNANWELERTNQSGLERCEGEQDKRLHCYASWANSSGTIELVKKGCWLIDFNCYDRQECVATEENPQVYFCCCEGNFCNERFTHLPEAGGGTHTCPPCPAPELLGGPSVFLFPPKPKDTLMISRTPEVTCVVVDVSHEDPEVKFNWYVDGVEVHNAKTKPREEQYNSTYRVVSVLTVLHQDWLNGKEYKCKVSNKALPVPIEKTISKAKGQPREPQVYTLPPSREEMTKNQVSLTCLVKGFYPSDIAVEWESNGQPENNYKTTPPVLDSDGSFFLYSKLTVDKSRWQQGNVFSCSVMHEALHNHYTQKSLSLSPGK | no binding | – | binds | –
ActRIIB-Fc R56A (Fc fusion, Mutation in the background ActRIIB-Fc) SGRGEAETRECIYYNANWELERTNQSGLERCEGEQDKALHCYASWANSSGTIELVKKGCWLDDFNCYDRQECVATEENPQVYFCCCEGNFCNERFTHLPEAGGGTHTCPPCPAPELLGGPSVFLFPPKPKDTLMISRTPEVTCVVVDVSHEDPEVKFNWYVDGVEVHNAKTKPREEQYNSTYRVVSVLTVLHQDWLNGKEYKCKVSNKALPVPIEKTISKAKGQPREPQVYTLPPSREEMTKNQVSLTCLVKGFYPSDIAVEWESNGQPENNYKTTPPVLDSDGSFFLYSKLTVDKSRWQQGNVFSCSVMHEALHNHYTQKSLSLSPGK | no binding | no binding | – | –
ActRIIB-Fc D80M (Fc fusion, Mutation in the background ActRIIB-Fc) SGRGEAETRECIYYNANWELERTNQSGLERCEGEQDKRLHCYASWANSSGTIELVKKGCWLMDFNCYDRQECVATEENPQVYFCCCEGNFCNERFTHLPEAGGGTHTCPPCPAPELLGGPSVFLFPPKPKDTLMISRTPEVTCVVVDVSHEDPEVKFNWYVDGVEVHNAKTKPREEQYNSTYRVVSVLTVLHQDWLNGKEYKCKVSNKALPVPIEKTISKAKGQPREPQVYTLPPSREEMTKNQVSLTCLVKGFYPSDIAVEWESNGQPENNYKTTPPVLDSDGSFFLYSKLTVDKSRWQQGNVFSCSVMHEALHNHYTQKSLSLSPGK | no binding | no binding | – | –
ActRIIB-Fc D80G (Fc fusion, Mutation in the background ActRIIB-Fc) SGRGEAETRECIYYNANWELERTNQSGLERCEGEQDKRLHCYASWANSSGTIELVKKGCWLGDFNCYDRQECVATEENPQVYFCCCEGNFCNERFTHLPEAGGGTHTCPPCPAPELLGGPSVFLFPPKPKDTLMISRTPEVTCVVVDVSHEDPEVKFNWYVDGVEVHNAKTKPREEQYNSTYRVVSVLTVLHQDWLNGKEYKCKVSNKALPVPIEKTISKAKGQPREPQVYTLPPSREEMTKNQVSLTCLVKGFYPSDIAVEWESNGQPENNYKTTPPVLDSDGSFFLYSKLTVDKSRWQQGNVFSCSVMHEALHNHYTQKSLSLSPGK | no binding | no binding | – | –
ActRIIB-Fc W78A (Fc fusion, Mutation in the background ActRIIB-Fc) SGRGEAETRECIYYNANWELERTNQSGLERCEGEQDKRLHCYASWANSSGTIELVKKGCALDDFNCYDRQECVATEENPQVYFCCCEGNFCNERFTHLPEAGGGTHTCPPCPAPELLGGPSVFLFPPKPKDTLMISRTPEVTCVVVDVSHEDPEVKFNWYVDGVEVHNAKTKPREEQYNSTYRVVSVLTVLHQDWLNGKEYKCKVSNKALPVPIEKTISKAKGQPREPQVYTLPPSREEMTKNQVSLTCLVKGFYPSDIAVEWESNGQPENNYKTTPPVLDSDGSFFLYSKLTVDKSRWQQGNVFSCSVMHEALHNHYTQKSLSLSPGK | no binding | no binding | – | –
ActRIIB-Fc K55A (Fc fusion, Mutation in the background ActRIIB-Fc) SGRGEAETRECIYYNANWELERTNQSGLERCEGEQDARLHCYASWANSSGTIELVKKGCWLDDFNCYDRQECVATEENPQVYFCCCEGNFCNERFTHLPEAGGGTHTCPPCPAPELLGGPSVFLFPPKPKDTLMISRTPEVTCVVVDVSHEDPEVKFNWYVDGVEVHNAKTKPREEQYNSTYRVVSVLTVLHQDWLNGKEYKCKVSNKALPVPIEKTISKAKGQPREPQVYTLPPSREEMTKNQVSLTCLVKGFYPSDIAVEWESNGQPENNYKTTPPVLDSDGSFFLYSKLTVDKSRWQQGNVFSCSVMHEALHNHYTQKSLSLSPGK | – | no binding | – | –
